Reference: US20180371093A1 (Novartis, published 2018)
Positions count from the first letter of the chain named.

Key:
[1] = target: T1, Programmed Death 1 (PD-1) (UniProt Q15116 25-167, limits assumed); assay: cell-based or functional assay
[2] = target: T1, Programmed Death 1 (PD-1); assay: rank among the 16 humanized clones by FACS binding data
[3] = target: T1, Programmed Death 1 (PD-1); assay: rank in competition binding against labelled murine mAb BAP049, 1st experiment
[4] = target: T1, Programmed Death 1 (PD-1); assay: rank in competition binding against labelled murine mAb BAP049, 2nd experiment
[5] = target: T1, Programmed Death 1 (PD-1); assay: FACS ligand blocking: binding of PD-L1-Ig to PD-1 at increasing mAb concentration (legend paragraph 212 names 'PD-L1-Ig and PD-L2-Ig' for FIG. 8A)

T1 sequence (Q15116 25-167 limits assumed): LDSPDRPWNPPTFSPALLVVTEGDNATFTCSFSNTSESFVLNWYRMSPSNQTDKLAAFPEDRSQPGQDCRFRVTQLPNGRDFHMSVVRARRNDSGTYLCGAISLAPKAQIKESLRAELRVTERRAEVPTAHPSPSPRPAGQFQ

B1: BAP049-Clone-E (antibody, human IgG4 S228P, kappa)
heavy: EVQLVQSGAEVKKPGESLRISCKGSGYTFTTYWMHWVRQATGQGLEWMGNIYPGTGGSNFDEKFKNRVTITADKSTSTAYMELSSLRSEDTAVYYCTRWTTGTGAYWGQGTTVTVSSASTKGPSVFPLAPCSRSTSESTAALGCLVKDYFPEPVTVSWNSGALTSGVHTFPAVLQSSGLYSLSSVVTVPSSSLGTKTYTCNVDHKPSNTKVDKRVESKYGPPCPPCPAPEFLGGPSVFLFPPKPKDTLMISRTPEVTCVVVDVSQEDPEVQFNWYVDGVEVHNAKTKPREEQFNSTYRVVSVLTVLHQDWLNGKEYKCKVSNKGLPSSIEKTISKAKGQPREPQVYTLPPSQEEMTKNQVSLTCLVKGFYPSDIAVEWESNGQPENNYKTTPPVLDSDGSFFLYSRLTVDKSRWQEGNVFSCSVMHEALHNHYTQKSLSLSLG
light: EIVLTQSPATLSLSPGERATLSCKSSQSLLDSGNQKNFLTWYQQKPGQAPRLLIYWASTRESGVPSRFSGSGSGTDFTFTISSLEAEDAATYYCQNDYSYPYTFGQGTKVEIKRTVAAPSVFIFPPSDEQLKSGTASVVCLLNNFYPREAKVQWKVDNALQSGNSQESVTEQDSKDSTYSLSSTLTLSKADYEKHKVYACEVTHQGLSSPVTKSFNRGEC
ex vivo EC50 for PD-1 blockade (IL-2 change in SEB ex-vivo assay) [1]: 0.42 mg/L

B2: BAP049-hum15 (antibody, human IgG4 S228P, kappa)
heavy chain: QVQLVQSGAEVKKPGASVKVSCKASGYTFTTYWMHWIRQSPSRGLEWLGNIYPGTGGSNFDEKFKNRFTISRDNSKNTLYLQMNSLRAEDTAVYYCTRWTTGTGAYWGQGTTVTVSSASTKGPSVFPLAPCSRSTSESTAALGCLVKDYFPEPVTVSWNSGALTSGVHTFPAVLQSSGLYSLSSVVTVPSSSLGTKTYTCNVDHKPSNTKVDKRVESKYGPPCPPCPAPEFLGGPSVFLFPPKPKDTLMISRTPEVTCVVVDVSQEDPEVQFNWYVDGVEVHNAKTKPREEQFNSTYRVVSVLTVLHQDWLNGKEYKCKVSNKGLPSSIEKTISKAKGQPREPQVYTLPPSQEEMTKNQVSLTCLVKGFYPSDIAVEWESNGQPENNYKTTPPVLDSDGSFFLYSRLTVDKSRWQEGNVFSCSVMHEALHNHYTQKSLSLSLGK
light chain: B1 light with A9D, T10F, L11Q, L13V, S14T, G16K, R18K, A19V, L21I, S22T
notes: also called clone 15
Ranking FACS data [2]: 6 rank
Competition Binding 1st exp. (rank) [3]: 7 rank
Competition Binding 2nd exp. (rank) [4]: 15 rank

B3: BAP049-hum16 (antibody, human IgG4 S228P, kappa, V domains shown)
VH: EVQLVQSGAEVKKPGESLRISCKGSGYTFTTYWMHWVRQAPGQGLEWMGNIYPGTGGSNFDEKFKNRFTISRDNSKNTLYLQMNSLRAEDTAVYYCTRWTTGTGAYWGQGTTVTVSS
VL: EIVLTQSPDFQSVTPKEKVTITCKSSQSLLDSGNQKNFLTWYQQKPGQAPRLLIYWASTRESGVPSRFSGSGSGTDFTFTISSLEAEDAATYYCQNDYSYPYTFGQGTKVEIKR
notes: also called clone 16
Ranking FACS data [2]: 15 rank
Competition Binding 1st exp. (rank) [3]: 16 rank
Competition Binding 2nd exp. (rank) [4]: 15 rank

B4: BAP049-hum11 (antibody, human IgG4 S228P, kappa)
heavy: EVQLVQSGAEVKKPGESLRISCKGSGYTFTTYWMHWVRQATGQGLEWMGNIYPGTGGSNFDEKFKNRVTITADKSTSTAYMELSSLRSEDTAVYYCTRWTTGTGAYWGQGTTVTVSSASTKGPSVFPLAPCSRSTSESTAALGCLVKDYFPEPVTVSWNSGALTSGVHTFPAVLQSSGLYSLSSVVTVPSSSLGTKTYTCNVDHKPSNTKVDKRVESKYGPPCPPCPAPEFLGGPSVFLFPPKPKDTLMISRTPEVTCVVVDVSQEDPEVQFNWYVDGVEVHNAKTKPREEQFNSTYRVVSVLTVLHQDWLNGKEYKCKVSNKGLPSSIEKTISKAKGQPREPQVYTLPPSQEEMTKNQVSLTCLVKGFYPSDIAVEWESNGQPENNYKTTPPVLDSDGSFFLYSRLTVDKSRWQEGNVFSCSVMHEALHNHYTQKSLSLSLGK
light: B1 light
notes: Humanized mAb
Ranking FACS data [2]: 6 rank
Competition Binding 1st exp. (rank) [3]: 4 rank
Competition Binding 2nd exp. (rank) [4]: > 4 rank

B5: BAP049-hum01 (antibody, human IgG4 S228P, kappa, V domains shown)
VH: EVQLVQSGAEVKKPGESLRISCKGSGYTFTTYWMHWVRQATGQGLEWMGNIYPGTGGSNFDEKFKNRVTITADKSTSTAYMELSSLRSEDTAVYYCTRWTTGTGAYWGQGTTVTVSS
VL: EIVLTQSPATLSLSPGERATLSCKSSQSLLDSGNQKNFLTWYQQKPGQAPRLLIYWASTRESGVPSRFSGSGSGTEFTLTISSLQPDDFATYYCQNDYSYPYTFGQGTKVEIKR
notes: Humanized mAb
Ranking FACS data [2]: 2 rank
Competition Binding 1st exp. (rank) [3]: 7 rank
Competition Binding 2nd exp. (rank) [4]: 2 rank
IC50 (read off the curve) [5]: ~1 mg/L

B6: BAP049-hum05 (antibody, human IgG4 S228P, kappa, V domains shown)
VH: B5 VH
VL: B5 VL with Q48K, R51K, E76D, L79F, D87E, F89I
notes: Humanized mAb
Ranking FACS data [2]: 5 rank
Competition Binding 1st exp. (rank) [3]: 5 rank
Competition Binding 2nd exp. (rank) [4]: > 4 rank
IC50 (read off the curve) [5]: ~1 mg/L

B7: BAP049-hum06 (antibody, human IgG4 S228P, kappa)
heavy chain: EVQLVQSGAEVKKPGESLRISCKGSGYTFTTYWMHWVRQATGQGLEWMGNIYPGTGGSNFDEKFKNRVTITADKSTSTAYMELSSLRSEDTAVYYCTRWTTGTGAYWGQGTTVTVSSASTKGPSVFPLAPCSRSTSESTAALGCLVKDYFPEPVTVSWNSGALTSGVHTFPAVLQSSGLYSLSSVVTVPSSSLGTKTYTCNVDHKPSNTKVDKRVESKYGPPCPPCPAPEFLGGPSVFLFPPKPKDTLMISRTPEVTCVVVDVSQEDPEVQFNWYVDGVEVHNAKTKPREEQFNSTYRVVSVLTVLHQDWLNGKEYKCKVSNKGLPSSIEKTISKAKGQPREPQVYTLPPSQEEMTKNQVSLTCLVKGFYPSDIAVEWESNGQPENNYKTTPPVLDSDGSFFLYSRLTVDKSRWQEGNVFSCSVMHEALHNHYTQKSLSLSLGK
light chain: DIVMTQTPLSLPVTPGEPASISCKSSQSLLDSGNQKNFLTWYQQKPGQAPRLLIYWASTRESGVPSRFSGSGSGTDFTFTISSLEAEDAATYYCQNDYSYPYTFGQGTKVEIKRTVAAPSVFIFPPSDEQLKSGTASVVCLLNNFYPREAKVQWKVDNALQSGNSQESVTEQDSKDSTYSLSSTLTLSKADYEKHKVYACEVTHQGLSSPVTKSFNRGEC
notes: also called clone 6
Ranking FACS data [2]: 1 rank
Competition Binding 1st exp. (rank) [3]: 7 rank
Competition Binding 2nd exp. (rank) [4]: 3 rank

B8: BAP049-hum07 (antibody, human IgG4 S228P, kappa)
heavy chain: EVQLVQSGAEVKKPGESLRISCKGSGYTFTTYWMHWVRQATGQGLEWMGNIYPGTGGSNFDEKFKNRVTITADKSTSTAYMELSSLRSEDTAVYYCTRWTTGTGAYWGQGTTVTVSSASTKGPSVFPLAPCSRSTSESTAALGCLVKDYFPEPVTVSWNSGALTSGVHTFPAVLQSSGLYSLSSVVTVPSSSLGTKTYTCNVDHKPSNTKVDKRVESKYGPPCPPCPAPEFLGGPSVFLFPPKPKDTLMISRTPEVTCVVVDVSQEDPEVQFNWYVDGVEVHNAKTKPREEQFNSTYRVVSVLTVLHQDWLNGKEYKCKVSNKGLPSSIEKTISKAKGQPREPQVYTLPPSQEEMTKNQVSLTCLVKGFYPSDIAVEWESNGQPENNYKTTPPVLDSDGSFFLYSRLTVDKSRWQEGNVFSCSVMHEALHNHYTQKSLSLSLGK
light chain: B1 light with Q48K, R51K
notes: also called clone 7
Ranking FACS data [2]: 4 rank
Competition Binding 1st exp. (rank) [3]: 7 rank
Competition Binding 2nd exp. (rank) [4]: > 4 rank

B9: BAP049-hum09 (antibody, human IgG4 S228P, kappa)
heavy: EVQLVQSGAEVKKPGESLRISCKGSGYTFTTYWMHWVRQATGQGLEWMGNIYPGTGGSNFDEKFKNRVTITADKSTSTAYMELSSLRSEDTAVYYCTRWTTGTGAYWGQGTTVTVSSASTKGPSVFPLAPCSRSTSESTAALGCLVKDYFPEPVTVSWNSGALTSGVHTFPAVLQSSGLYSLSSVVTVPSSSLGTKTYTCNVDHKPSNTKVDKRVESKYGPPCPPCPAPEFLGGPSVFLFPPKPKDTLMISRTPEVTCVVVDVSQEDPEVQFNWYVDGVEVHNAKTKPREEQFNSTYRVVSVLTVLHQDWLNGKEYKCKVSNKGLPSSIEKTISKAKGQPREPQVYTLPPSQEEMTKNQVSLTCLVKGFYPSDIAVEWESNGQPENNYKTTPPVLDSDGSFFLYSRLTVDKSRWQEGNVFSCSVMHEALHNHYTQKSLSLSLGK
light: B1 light with A9D, T10F, L11Q, L13V, S14T, G16K, R18K, A19V, L21I, S22T
notes: Humanized mAb
Ranking FACS data [2]: 7 rank
Competition Binding 1st exp. (rank) [3]: 2 rank
Competition Binding 2nd exp. (rank) [4]: 4 rank

B10: BAP049-hum10 (antibody, human IgG4 S228P, kappa)
heavy: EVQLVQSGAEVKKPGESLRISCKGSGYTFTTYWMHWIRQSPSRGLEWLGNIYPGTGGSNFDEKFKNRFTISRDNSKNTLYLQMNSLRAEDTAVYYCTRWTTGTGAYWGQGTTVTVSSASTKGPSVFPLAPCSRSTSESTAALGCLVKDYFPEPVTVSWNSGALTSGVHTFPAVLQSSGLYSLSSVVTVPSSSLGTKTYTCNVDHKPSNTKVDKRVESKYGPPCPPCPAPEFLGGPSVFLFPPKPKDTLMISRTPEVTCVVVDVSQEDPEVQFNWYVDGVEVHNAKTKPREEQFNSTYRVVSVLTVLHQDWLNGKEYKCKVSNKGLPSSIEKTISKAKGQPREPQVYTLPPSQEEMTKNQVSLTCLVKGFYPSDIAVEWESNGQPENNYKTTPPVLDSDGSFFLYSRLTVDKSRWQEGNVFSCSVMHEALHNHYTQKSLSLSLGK
light: B1 light
notes: Humanized mAb
Ranking FACS data [2]: 7 rank
Competition Binding 1st exp. (rank) [3]: 6 rank
Competition Binding 2nd exp. (rank) [4]: > 4 rank
IC50 (read off the curve) [5]: ~1 mg/L

B11: BAP049-hum04 (antibody, human IgG4 S228P, kappa, V domains shown)
VH: B3 VH with V37I, A40S, G42S, Q43R, M48L
VL: B5 VL with Q48K, R51K, E76D, L79F, D87E, F89I
notes: also called clone 4
Ranking FACS data [2]: 14 rank
Competition Binding 1st exp. (rank) [3]: 15 rank
Competition Binding 2nd exp. (rank) [4]: 15 rank

B12: BAP049-hum08 (antibody, human IgG4 S228P, kappa)
heavy: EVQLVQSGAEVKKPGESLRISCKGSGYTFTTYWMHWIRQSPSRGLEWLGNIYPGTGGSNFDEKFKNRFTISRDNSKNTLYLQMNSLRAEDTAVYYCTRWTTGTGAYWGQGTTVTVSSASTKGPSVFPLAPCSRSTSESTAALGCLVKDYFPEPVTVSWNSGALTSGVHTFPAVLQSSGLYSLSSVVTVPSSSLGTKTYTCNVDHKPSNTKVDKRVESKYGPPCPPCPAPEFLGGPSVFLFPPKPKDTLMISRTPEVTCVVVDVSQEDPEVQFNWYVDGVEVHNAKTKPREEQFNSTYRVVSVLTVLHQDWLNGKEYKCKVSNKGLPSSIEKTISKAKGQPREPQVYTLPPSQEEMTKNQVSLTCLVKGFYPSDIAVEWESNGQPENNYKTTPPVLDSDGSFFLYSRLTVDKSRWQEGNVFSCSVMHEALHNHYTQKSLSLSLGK
light: B1 light with A9D, T10F, L11Q, L13V, S14T, G16K, R18K, A19V, L21I, S22T
notes: Humanized mAb
Ranking FACS data [2]: 7 rank
Competition Binding 1st exp. (rank) [3]: 7 rank
Competition Binding 2nd exp. (rank) [4]: 4 rank

B13: BAP049-hum14 (antibody, human IgG4 S228P, kappa)
heavy chain: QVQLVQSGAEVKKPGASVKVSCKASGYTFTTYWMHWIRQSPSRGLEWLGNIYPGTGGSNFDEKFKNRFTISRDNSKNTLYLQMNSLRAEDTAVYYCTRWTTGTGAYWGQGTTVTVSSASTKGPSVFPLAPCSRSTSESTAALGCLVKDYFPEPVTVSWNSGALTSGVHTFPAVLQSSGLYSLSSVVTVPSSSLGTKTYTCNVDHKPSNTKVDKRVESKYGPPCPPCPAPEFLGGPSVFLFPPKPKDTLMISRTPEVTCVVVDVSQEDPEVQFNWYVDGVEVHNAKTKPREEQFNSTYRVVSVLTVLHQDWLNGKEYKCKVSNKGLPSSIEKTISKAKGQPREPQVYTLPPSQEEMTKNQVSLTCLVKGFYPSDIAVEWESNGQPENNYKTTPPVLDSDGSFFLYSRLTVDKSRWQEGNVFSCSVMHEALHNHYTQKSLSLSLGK
light chain: B1 light
notes: also called clone 14
Ranking FACS data [2]: 16 rank
Competition Binding 1st exp. (rank) [3]: 7 rank
Competition Binding 2nd exp. (rank) [4]: 15 rank

B14: Chi mAb (Tyr) (antibody, human IgG4 S228P, kappa, V domains shown)
VH: QVQLQQSGSELVRPGASVKLSCKASGYTFTTYWMHWVRQRPGQGLEWIGNIYPGTGGSNFDEKFKNRTSLTVDTSSTTAYMHLASLTSEDSAVYYCTRWTTGTGAYWGQGTTVTVSS
VL: DIVMTQSPSSLTVTAGEKVTMSCKSSQSLLDSGNQKNFLTWYQQKPGQPPKLLIFWASTRESGVPDRFTGSGSVTDFTLTISSVQAEDLAVYYCQNDYSYPYTFGQGTKVEIKR
notes: also called BAP049-chi-Y; Chi (Tyr)
IC50 (read off the curve) [5]: ~0.9 mg/L

B15: Mu mAb (antibody, V domains shown)
VH: B14 VH with T112L, S117A
VL: DIVMTQSPSSLTVTAGEKVTMSCKSSQSLLDSGNQKNFLTWYQQKPGQPPKLLIFWASTRESGVPDRFTGSGSVTDFTLTISSVQAEDLAVYYCQNDYSYPCTFGGGTKLEIK
notes: Unlabelled when its concentration is varied; also called murine anti-PD-1 mAb BAP049; Mu mAb control
IC50 (read off the curve) [5]: ~0.7 mg/L

B16: BAP049-hum02 (antibody, human IgG4 S228P, kappa, V domains shown)
VH: B5 VH
VL: DIQMTQSPSSLSASVGDRVTITCKSSQSLLDSGNQKNFLTWYQQKPGQAPRLLIYWASTRESGIPPRFSGSGYGTDFTLTINNIESEDAAYYFCQNDYSYPYTFGQGTKVEIKR
notes: also called clone 2
Ranking FACS data [2]: 6 rank
Competition Binding 1st exp. (rank) [3]: 3 rank
Competition Binding 2nd exp. (rank) [4]: 2 rank

B17: BAP049-hum03 (antibody, human IgG4 S228P, kappa, V domains shown)
VH: B3 VH with V37I, A40S, G42S, Q43R, M48L
VL: B16 VL
notes: also called clone 3
Ranking FACS data [2]: 7 rank
Competition Binding 1st exp. (rank) [3]: 8 rank
Competition Binding 2nd exp. (rank) [4]: 14 rank

B18: BAP049-hum12 (antibody, human IgG4 S228P, kappa, V domains shown)
VH: B5 VH
VL: DIQMTQSPSSLSASVGDRVTITCKSSQSLLDSGNQKNFLTWYLQKPGQSPQLLIYWASTRESGVPSRFSGSGSGTDFTFTISSLEAEDAATYYCQNDYSYPYTFGQGTKVEIKR
notes: also called clone 12
Ranking FACS data [2]: 3 rank
Competition Binding 1st exp. (rank) [3]: 8 rank
Competition Binding 2nd exp. (rank) [4]: 16 rank

B19: BAP049-hum13 (antibody, human IgG4 S228P, kappa)
heavy chain: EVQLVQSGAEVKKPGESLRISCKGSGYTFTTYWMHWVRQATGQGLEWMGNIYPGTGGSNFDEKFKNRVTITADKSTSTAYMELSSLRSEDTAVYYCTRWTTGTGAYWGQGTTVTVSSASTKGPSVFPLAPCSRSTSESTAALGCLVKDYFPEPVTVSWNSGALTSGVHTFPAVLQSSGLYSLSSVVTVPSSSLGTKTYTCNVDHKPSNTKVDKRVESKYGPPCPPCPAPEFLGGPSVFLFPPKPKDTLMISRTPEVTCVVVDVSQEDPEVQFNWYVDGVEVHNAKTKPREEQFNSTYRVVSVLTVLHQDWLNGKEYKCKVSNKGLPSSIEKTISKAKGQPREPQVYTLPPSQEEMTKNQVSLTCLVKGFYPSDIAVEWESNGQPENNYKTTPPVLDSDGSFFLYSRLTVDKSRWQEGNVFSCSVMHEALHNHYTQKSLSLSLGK
light chain: B7 light chain with I2V, T7S, P15L, E17Q, Q48K, R51K
notes: also called clone 13
Ranking FACS data [2]: 6 rank
Competition Binding 1st exp. (rank) [3]: 1 rank
Competition Binding 2nd exp. (rank) [4]: 1 rank
